Where “and” joins values, the source holds several entries; their conditions need not be identical. Equal entries are not always repeated.
Key:
[1] = target: avi-β1AR-E (turkey β1-adrenergic receptor, minimally thermostabilised construct with E130 restored, N-terminal biotinylated avi-tag) (turkey) (UniProt P07700); test: BLI; biotinylated avi-tagged receptor in LMNG immobilised on streptavidin biosensors; 500 μM salbutamol (partial agonist); mini-Gs in solution at a single concentration (1 or 2 μM); 20 mM TrisHCl pH 8.0, 150 mM NaCl, 15 mM MgCl2, 0.02% LMNG, 0.1% BSA; 25 °C; 1:1 monophasic local partial fit; one of n = 3 tips
Chain of avi-β1AR-E (turkey β1-adrenergic receptor, minimally thermostabilised construct with E130 restored, N-terminal biotinylated avi-tag) (turkey) (P07700 other isoform, or with tags, fused parts or gaps with the stated changes): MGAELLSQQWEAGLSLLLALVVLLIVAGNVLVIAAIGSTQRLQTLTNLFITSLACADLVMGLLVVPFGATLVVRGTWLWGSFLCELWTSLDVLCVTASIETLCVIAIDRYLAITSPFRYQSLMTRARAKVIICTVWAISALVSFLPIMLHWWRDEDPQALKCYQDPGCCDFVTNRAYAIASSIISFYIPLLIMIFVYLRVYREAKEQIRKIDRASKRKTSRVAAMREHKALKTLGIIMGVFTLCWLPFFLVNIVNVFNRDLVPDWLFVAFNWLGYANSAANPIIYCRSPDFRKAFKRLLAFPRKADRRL

[2] = target: avi-β1AR-W (turkey β1-adrenergic receptor β1AR-MetΔ5, thermostabilised with E130W, N-terminal biotinylated avi-tag) (turkey) (UniProt P07700); test: as above
Chain of avi-β1AR-W (turkey β1-adrenergic receptor β1AR-MetΔ5, thermostabilised with E130W, N-terminal biotinylated avi-tag) (turkey) (P07700 other isoform, or with tags, fused parts or gaps with the stated changes): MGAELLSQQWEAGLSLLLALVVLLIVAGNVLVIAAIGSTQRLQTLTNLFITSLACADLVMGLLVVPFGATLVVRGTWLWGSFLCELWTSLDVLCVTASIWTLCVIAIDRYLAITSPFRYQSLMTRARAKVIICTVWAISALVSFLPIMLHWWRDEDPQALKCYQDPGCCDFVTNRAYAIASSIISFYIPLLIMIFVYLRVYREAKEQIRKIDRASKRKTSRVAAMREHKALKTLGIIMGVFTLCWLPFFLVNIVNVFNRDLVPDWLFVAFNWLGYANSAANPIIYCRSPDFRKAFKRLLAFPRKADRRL

[3] = target: avi-β1AR-E (turkey β1-adrenergic receptor, minimally thermostabilised construct with E130 restored, N-terminal biotinylated avi-tag) (turkey) (UniProt P07700); test: BLI; biotinylated avi-tagged receptor in LMNG immobilised on streptavidin biosensors; 500 μM xamoterol (partial agonist); mini-Gs in solution at 4 μM (column 4); 20 mM TrisHCl pH 8.0, 150 mM NaCl, 15 mM MgCl2, 0.02% LMNG, 0.1% BSA; 25 °C; 1:1 monophasic local partial fit; each row one of n = …
[4] = target: avi-β1AR-W (turkey β1-adrenergic receptor β1AR-MetΔ5, thermostabilised with E130W, N-terminal biotinylated avi-tag) (turkey) (UniProt P07700); test: as above
[5] = target: avi-β1AR-E (turkey β1-adrenergic receptor, minimally thermostabilised construct with E130 restored, N-terminal biotinylated avi-tag) (turkey) (UniProt P07700); test: BLI; biotinylated avi-tagged receptor in LMNG immobilised on streptavidin biosensors; 500 μM isoprenaline; mini-G in solution at a single concentration (0.125-4 μM); 20 mM TrisHCl pH 8.0, 150 mM NaCl, 15 mM MgCl2, 0.02% LMNG, 0.1% BSA; 25 °C; 1:1 monophasic local partial fit; one of n = 3 tips
[6] = target: avi-β1AR-W (turkey β1-adrenergic receptor β1AR-MetΔ5, thermostabilised with E130W, N-terminal biotinylated avi-tag) (turkey) (UniProt P07700); test: as above

Kd [1]: 977 nM and 962 nM and 946 nM | Kd [2]: 1440 nM | Kd [3]: 2370 nM and 2320 nM and 2400 nM | Kd [4]: 3060 nM and 2950 nM and 2900 nM | Kd [5]: 42.9 nM and 46.3 nM and 51.2 nM | Kd [6]: 173 nM and 170 nM and 141 nM
Substance: mini-Gs 393 C96A (domain or fragment)

Source: paper PMC10864275, “Binding kinetics drive G protein subtype selectivity at the β1-adrenergic receptor” (Nature Communications, 2024)
